The values below come from US20050095604A1 (published 2005).

The target of the test is T1, endogenous beta-catenin of human HEK293 cells (human, UniProt P35222 2-781).
T1 construct: also called β-catenin
T1 sequence (looked up): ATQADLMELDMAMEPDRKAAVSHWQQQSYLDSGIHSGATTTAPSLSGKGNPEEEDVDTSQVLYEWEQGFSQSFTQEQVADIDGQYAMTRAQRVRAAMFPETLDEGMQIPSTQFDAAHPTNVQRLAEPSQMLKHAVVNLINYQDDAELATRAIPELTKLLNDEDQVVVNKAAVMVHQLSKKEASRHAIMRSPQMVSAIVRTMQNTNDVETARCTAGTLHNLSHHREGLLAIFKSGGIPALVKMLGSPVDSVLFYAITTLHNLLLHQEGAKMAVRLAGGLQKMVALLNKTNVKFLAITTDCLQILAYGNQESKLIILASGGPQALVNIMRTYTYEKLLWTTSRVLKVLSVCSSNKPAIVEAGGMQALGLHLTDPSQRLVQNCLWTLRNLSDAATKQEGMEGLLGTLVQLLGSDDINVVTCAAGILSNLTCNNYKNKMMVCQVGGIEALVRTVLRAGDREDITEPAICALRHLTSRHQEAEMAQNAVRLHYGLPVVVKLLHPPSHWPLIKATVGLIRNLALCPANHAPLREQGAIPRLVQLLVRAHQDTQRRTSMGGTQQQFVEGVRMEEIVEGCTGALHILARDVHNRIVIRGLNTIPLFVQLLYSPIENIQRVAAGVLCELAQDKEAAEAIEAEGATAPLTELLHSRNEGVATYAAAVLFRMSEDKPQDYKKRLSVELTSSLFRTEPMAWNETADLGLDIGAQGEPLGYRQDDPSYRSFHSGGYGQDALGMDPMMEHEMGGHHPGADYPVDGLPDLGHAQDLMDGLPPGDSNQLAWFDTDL
Nature of the test: Talon cobalt-affinity isolation of His-tagged hPSF from 1% CHAPSO lysates of stable HEK293 cells, Western blot. Background: Immunoblotting shows a protein as a band on a membrane.

B1: human presenilin stabilization factor (PSF) with C-terminal V5 and poly-histidine (6xHis) tags (other, not shown: small tags and cut ends)
chain: MGAAVFFGCTFVAFGPAFALFLITVAGDPLRVIILVAGAFFWLVSLLLASVVWFILVHVTDRSDARLQYGLLIFGAAVSVLLQEVFRFAYYKLLKKADEGLASLSEDGRSPISIRQMAYVSGLSFGIISGVFSVINILADALGPGVVGIHGDSPYYFLTSAFLTAAIILLHTFWGVVFFDACERRRYWALGLVVGSHLLTSGLTFLNPWYEASLLPIYAVTVSMGLWAFITAGGSLRSIQRSSCVRTDYLD
notes: Stably expressed in HEK293 (APP-695) cells (clonal line 2-7), solubilised in 1% CHAPSO and captured on Talon cobalt resin; Both the full-length (~25 kDa) and the processed (~15 kDa) forms were isolated; also called hPSF; PSF-V5
For B1, the binding result is “no binding”.
